Laboratory results: patent US20180346602A1

Key:
[1] = target: anti-P-Selectin antibody (IgG4 subclass with mutations S228P/L235E) [IgG part: P01861]; experiment: sandwich ELISA assay A; capture M1.7.10-Bi; antibody 4 at 3 ng/mL
[2] = target: anti-VEGF/ANG2 antibody (wild-type IgG1 subclass) [IgG part: P01857]; experiment: sandwich ELISA assay A; capture M1.7.10-Bi; antibody 5 at 3 ng/mL
[3] = target: anti-VEGF/ANG2 antibody (IgG1 subclass with mutations P329G/L234A/L235A/I253A/H310A/H435A) [IgG part: P01857]; experiment: sandwich ELISA assay A; capture M1.7.10-Bi; antibody 1 at 13 ng/mL
[4] = target: anti-IGF-1R antibody (IgG1 subclass with mutations I253A/H310A/H435A) [IgG part: P01857]; experiment: sandwich ELISA assay A; capture M1.7.10-Bi; antibody 3 at 13 ng/mL
[5] = target: anti-P-Selectin antibody (IgG4 subclass with mutations S228P/L235E) [IgG part: P01861]; experiment: sandwich ELISA assay A; capture M1.7.10-Bi; antibody 4 at 50 ng/mL
[6] = target: anti-VEGF/ANG2 antibody (IgG1 subclass with mutations P329G/L234A/L235A) [IgG part: P01857]; experiment: sandwich ELISA assay A; capture M1.7.10-Bi; antibody 2 at 100 ng/mL
[7] = target: anti-P-Selectin antibody (IgG4 subclass with mutations S228P/L235E) [IgG part: P01861]; experiment: sandwich ELISA assay A; capture M1.7.10-Bi; antibody 4 at 100 ng/mL
[8] = target: anti-VEGF/ANG2 antibody (IgG1 subclass with mutations P329G/L234A/L235A) [IgG part: P01857]; experiment: sandwich ELISA assay A; capture M1.7.10-Bi; antibody 2 at 0 ng/mL (blank)
[9] = target: anti-IGF-1R antibody (IgG1 subclass with mutations I253A/H310A/H435A) [IgG part: P01857]; experiment: sandwich ELISA assay A; capture M1.7.10-Bi; antibody 3 at 0 ng/mL (blank)
[10] = target: anti-IGF-1R antibody (IgG1 subclass with mutations I253A/H310A/H435A) (human) [IgG part: P01857]; experiment: sandwich ELISA assay C; capture on SA plate; tracer FcγRI-Dig; analyte 13 ng/mL
[11] = target: anti-P-Selectin antibody (IgG4 subclass with mutations S228P/L235E) (human) [IgG part: P01861]; experiment: as above
[12] = target: anti-VEGF/ANG2 antibody (IgG1 subclass with mutations P329G/L234A/L235A) (human) [IgG part: P01857]; experiment: as above
[13] = target: anti-VEGF/ANG2 antibody (IgG1 subclass with mutations P329G/L234A/L235A/I253A/H310A/H435A) (human) [IgG part: P01857]; experiment: as above
[14] = target: anti-IGF-1R antibody (IgG1 subclass with mutations I253A/H310A/H435A) (human) [IgG part: P01857]; experiment: sandwich ELISA assay C; capture on SA plate; tracer FcγRI-Dig; analyte 25 ng/mL
[15] = target: anti-P-Selectin antibody (IgG4 subclass with mutations S228P/L235E) (human) [IgG part: P01861]; experiment: as above
[16] = target: anti-VEGF/ANG2 antibody (IgG1 subclass with mutations P329G/L234A/L235A) (human) [IgG part: P01857]; experiment: as above
[17] = target: anti-VEGF/ANG2 antibody (IgG1 subclass with mutations P329G/L234A/L235A/I253A/H310A/H435A) (human) [IgG part: P01857]; experiment: as above
[18] = target: anti-IGF-1R antibody (IgG1 subclass with mutations I253A/H310A/H435A) (human) [IgG part: P01857]; experiment: sandwich ELISA assay C; capture on SA plate; tracer FcγRI-Dig; analyte 50 ng/mL
[19] = target: anti-P-Selectin antibody (IgG4 subclass with mutations S228P/L235E) (human) [IgG part: P01861]; experiment: as above
[20] = target: anti-VEGF/ANG2 antibody (IgG1 subclass with mutations P329G/L234A/L235A) (human) [IgG part: P01857]; experiment: as above
[21] = target: anti-VEGF/ANG2 antibody (IgG1 subclass with mutations P329G/L234A/L235A/I253A/H310A/H435A) (human) [IgG part: P01857]; experiment: as above
[22] = target: anti-IGF-1R antibody (IgG1 subclass with mutations I253A/H310A/H435A) (human) [IgG part: P01857]; experiment: sandwich ELISA assay B; capture on SA plate; tracer M1.7.10-Dig; analyte 13 ng/mL
[23] = target: anti-P-Selectin antibody (IgG4 subclass with mutations S228P/L235E) (human) [IgG part: P01861]; experiment: as above
[24] = target: anti-VEGF/ANG2 antibody (IgG1 subclass with mutations P329G/L234A/L235A) (human) [IgG part: P01857]; experiment: as above
[25] = target: anti-VEGF/ANG2 antibody (IgG1 subclass with mutations P329G/L234A/L235A/I253A/H310A/H435A) (human) [IgG part: P01857]; experiment: as above

Binder	signal [OD405 nm] [1] [OD405 nm]	signal [OD405 nm] [2] [OD405 nm]	signal [OD405 nm] [3] [OD405 nm]	signal [OD405 nm] [4] [OD405 nm]	signal [OD405 nm] [5] [OD405 nm]	signal [OD405 nm] [6] [OD405 nm]	signal [OD405 nm] [7] [OD405 nm]	signal [OD405 nm] [8] [OD405 nm]	signal [OD405 nm] [9] [OD405 nm]	signal [OD405 nm] [10] [OD405 nm]	signal [OD405 nm] [11] [OD405 nm]	signal [OD405 nm] [12] [OD405 nm]	signal [OD405 nm] [13] [OD405 nm]	signal [OD405 nm] [14] [OD405 nm]	signal [OD405 nm] [15] [OD405 nm]	signal [OD405 nm] [16] [OD405 nm]	signal [OD405 nm] [17] [OD405 nm]	signal [OD405 nm] [18] [OD405 nm]	signal [OD405 nm] [19] [OD405 nm]	signal [OD405 nm] [20] [OD405 nm]	other results
anti-variant (human) Fc-region antibody M1.3.17 (antibody, V domains shown) VH: EVKLLESGGGLVQPGGSLKLSCAASGIDFRRYWMNWVRQAPGKGLEWIGEIDPDSSTINYTPSLKDKFIISRDNAKNTMYLQMRKVRSEDTALYYCARPYDYGAWFAYWGQGTLVTVSA VL: QAVVTQESALTTSPGETVTLTCRSTTGAVTTSNYANWVQEKPDHLFTGLIGGTNKRAPGVPARFSGSLIGDKAALTITGAQTEDEAIYFCALWYSDHWVFGGGTKLTVL	0.033	0.033	0.04	0.04	0.037	3.04	0.04	0.042	0.04	1.21	1.16	1.23	1.14	1.2	1.17	1.21	1.07	1.21	1.15	1.21	signal [OD405 nm] [21]: 1.17 OD405 nm; signal [OD405 nm] [22]: 0.044 OD405 nm; signal [OD405 nm] [23]: 0.047 OD405 nm; signal [OD405 nm] [24]: 0.217 OD405 nm; signal [OD405 nm] [25]: 0.034 OD405 nm
anti-variant (human) Fc-region antibody M1.7.24 (antibody, V domains shown) VH: EVKLLESGGGLVQPGGSLKLSCAASGFDFSRYWMNWVRQAPGKGLEWIGEITPDSSTINYTPSLKDKFIISRDNAKNTLYLQMIKVRSEDTALYYCVRPYDYGAWFASWGQGTLVTVSA VL: QAVVTQESALTTSPGETVTLTCRSSTGAVTTSNYANWVQEKPDHLFTGLIGGTNKRAPGVPARFSGSLIGDKAALTITGAQTEDEAIYFCALWYSNHWVFGGGTKLTVL	0.04	0.038	0.047	0.044	0.049	2.65	0.046	0.043	0.049	0.058	0.066	0.06	0.085	0.073	0.07	0.083	0.082	0.095	0.066	0.094	signal [OD405 nm] [21]: 0.084 OD405 nm; signal [OD405 nm] [22]: 0.043 OD405 nm; signal [OD405 nm] [23]: 0.037 OD405 nm; signal [OD405 nm] [24]: 3.15 OD405 nm; signal [OD405 nm] [25]: 0.053 OD405 nm
anti-AAA variant Fc-region antibody M1.6.22 (antibody, V domains shown) VH: EVQLVESGGDLVKPGGSLKLSCAASGFTFSSYGMSWVRQTPDKRLEWVATISSGGSYIYYPDSVKGRFTISRDNAKNTLYLQMSSLKSEDTAMYYCARLGMITTGYAMDYWGQGTSVTVSS VL: DVLMTQTPLSLPVSLGDQASISCRSSQTIVHSTGHTYLEWFLQKPGQSPKLLIYKVSNRFSGVPDRFSGSGSGTDFTLKISRVEAEDLGVYYCFQGSHVPYTFGGGTKLEIK	0.037	0.039	0.061	1.74	0.052	0.076	0.057	0.048	0.046	0.175	0.052	0.061	0.064	0.401	0.06	0.063	0.081	1.06	0.054	0.057	signal [OD405 nm] [21]: 0.077 OD405 nm; signal [OD405 nm] [22]: 2.85 OD405 nm; signal [OD405 nm] [23]: 0.042 OD405 nm; signal [OD405 nm] [24]: 0.066 OD405 nm; signal [OD405 nm] [25]: 0.041 OD405 nm
